# B1: KRT18 (parent)
# chain: RAQYDELARKNREELDKYWSQQIE
# Variants of: B1
# Assay: protein stability index of a GFP-peptide fusion (GPS, HEK-293T) (PSI 1-6); higher = more stable
# Details: c terminus: a fixed tail appended
# 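Also: lentivirally expressed fusions sorted by FACS into six bins by GFP to DsRed ratio, PSI derived from sequencing read proportions per bin multiplied by bin number.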
row,Variant,protein stability index
1,RAQYDELAPKNREELDKYWSQQIE,4.28
2,RAQYDELALKNREELDKYWSQQIE,3.27
3,RAQYDELAVKNREELDKYWSQQIE,2.86
4,RAQYDELACKNREELDKYWSQQIE,3.6
5,RAQYDELANKNREELDKYWSQQIE,3.46
6,RAQYDELAWKNREELDKYWSQQIE,2.62
7,RAQYDELAHKNREELDKYWSQQIE,3.4
8,RAQYDELAEKNREELDKYWSQQIE,3.69
9,RAQYDELAYKNREELDKYWSQQIE,3.64
10,RAQYDELAQKNREELDKYWSQQIE,3.16
11,RAQYDELAMKNREELDKYWSQQIE,3.17
12,RAQYDELAFKNREELDKYWSQQIE,3.88
13,RAQYDELASKNREELDKYWSQQIE,3.66
14,RAQYDELAAKNREELDKYWSQQIE,3.92
15,RAQYDELADKNREELDKYWSQQIE,4.4
16,RAQYDELAIKNREELDKYWSQQIE,3.34
17,RAQYDELATKNREELDKYWSQQIE,3.53
18,RAQYDELAGKNREELDKYWSQQIE,4.53
19,RAQYDELAKKNREELDKYWSQQIE,3.52
20,RAQYDELARKNRYELDKYWSQQIE,3.05
21,RAQYDELARKNRPELDKYWSQQIE,2.99
22,RAQYDELARKNRSELDKYWSQQIE,3.96
23,RAQYDELARKNRKELDKYWSQQIE,3.2
24,RAQYDELARKNRCELDKYWSQQIE,2.81

row,Variant,protein stability index
1,RAQYDELARKNRQELDKYWSQQIE,2.91
2,RAQYDELARKNRAELDKYWSQQIE,3.41
3,RAQYDELARKNRDELDKYWSQQIE,3.54
4,RAQYDELARKNRHELDKYWSQQIE,3.54
5,RAQYDELARKNRNELDKYWSQQIE,3.58
6,RAQYDELARKNRVELDKYWSQQIE,2.07
7,RAQYDELARKNRTELDKYWSQQIE,3.82
8,RAQYDELARKNRRELDKYWSQQIE,3.31
9,RAQYDELARKNRGELDKYWSQQIE,3.92
10,RAQYDELARKNRMELDKYWSQQIE,2.82
11,RAQYDELARKNRLELDKYWSQQIE,3.07
12,RAQYDELARKNRWELDKYWSQQIE,2.65
13,RAQYDELARKNRIELDKYWSQQIE,2.05
14,RAQYDELARKNRFELDKYWSQQIE,3.1
15,RAQYDELTRKNREELDKYWSQQIE,2.33
16,RAQYDELVRKNREELDKYWSQQIE,2.6
17,RAQYDELWRKNREELDKYWSQQIE,1.31
18,RAQYDELARWNREELDKYWSQQIE,2.81
19,RAQYDELARMNREELDKYWSQQIE,4.04
20,RAQYDELARANREELDKYWSQQIE,2.97
21,RAQYDELARPNREELDKYWSQQIE,3.83
22,RAQYDELARFNREELDKYWSQQIE,3.34
23,RAQYDELARGNREELDKYWSQQIE,4.05
24,RAQYDELARLNREELDKYWSQQIE,3.73

row,Variant,protein stability index
1,RAQYDELARQNREELDKYWSQQIE,3.14
2,RAQYDELARINREELDKYWSQQIE,2.79
3,RAQYDELARTNREELDKYWSQQIE,3.5
4,RAQYDELARSNREELDKYWSQQIE,3.23
5,RAQYDELARDNREELDKYWSQQIE,4.73
6,RAQYDELARYNREELDKYWSQQIE,4.15
7,RAQYDELARNNREELDKYWSQQIE,3.79
8,RAQYDELARCNREELDKYWSQQIE,3.02
9,RAQYDELARHNREELDKYWSQQIE,4.16
10,RAQYDELARRNREELDKYWSQQIE,3.03
11,RAQYDELARVNREELDKYWSQQIE,3.15
12,RAQYDELARENREELDKYWSQQIE,3.33
13,RAQYDELARKYREELDKYWSQQIE,2.27
14,RAQYDELARKLREELDKYWSQQIE,2.66
15,RAQYDELARKWREELDKYWSQQIE,2.63
16,RAQYDELARKPREELDKYWSQQIE,4.02
17,RAQYDELARKGREELDKYWSQQIE,3.71
18,RAQYDELARKMREELDKYWSQQIE,2.81
19,RAQYDELARKCREELDKYWSQQIE,2.81
20,RAQYDELARKHREELDKYWSQQIE,3.75
21,RAQYDELARKAREELDKYWSQQIE,4
22,RAQYDELARKIREELDKYWSQQIE,2.37
23,RAQYDELARKDREELDKYWSQQIE,4.23
24,RAQYDELARKQREELDKYWSQQIE,3.87

row,Variant,protein stability index
1,RAQYDELARKRREELDKYWSQQIE,3.39
2,RAQYDELARKEREELDKYWSQQIE,4.54
3,RAQYDELARKKREELDKYWSQQIE,3.96
4,RAQYDELARKSREELDKYWSQQIE,4.15
5,RAQYDELARKFREELDKYWSQQIE,1.94
6,RAQYDELARKTREELDKYWSQQIE,2.8
7,RAQYDELARKVREELDKYWSQQIE,2.75
8,RAQYDELARKNREELYKYWSQQIE,2.72
9,RAQYDELARKNREELEKYWSQQIE,3.39
10,RAQYDELARKNREELRKYWSQQIE,3.08
11,RAQYDELARKNREELGKYWSQQIE,2.03
12,RAQYDELARKNREELHKYWSQQIE,3.35
13,RAQYDELARKNREELNKYWSQQIE,1.42
14,RAQYDELARKNREELAKYWSQQIE,2.56
15,RAQYDELARKNREELFKYWSQQIE,2.1
16,RAQYDELARKNREELTKYWSQQIE,2.92
17,RAQYDELARKNREELQKYWSQQIE,2.69
18,RAQYDELARKNREELLKYWSQQIE,3.12
19,RAQYDELARKNREELPKYWSQQIE,3.63
20,RAQYDELARKNREELMKYWSQQIE,2.74
21,RAQYDELARKNREELIKYWSQQIE,2.15
22,RAQYDELARKNREELCKYWSQQIE,2.4
23,RAQYDELARKNREELWKYWSQQIE,2.21
24,RAQYDELARKNREELSKYWSQQIE,2.36

row,Variant,protein stability index
1,RAQYDELARKNYEELDKYWSQQIE,4.05
2,RAQYDELARKNQEELDKYWSQQIE,4.12
3,RAQYDELARKNGEELDKYWSQQIE,3.32
4,RAQYDELARKNVEELDKYWSQQIE,4.34
5,RAQYDELARKNLEELDKYWSQQIE,4.56
6,RAQYDELARKNKEELDKYWSQQIE,4.37
7,RAQYDELARKNAEELDKYWSQQIE,4.25
8,RAQYDELARKNTEELDKYWSQQIE,4.19
9,RAQYDELARKNNEELDKYWSQQIE,3.94
10,RAQYDELARKNIEELDKYWSQQIE,4.34
11,RAQYDELARKNWEELDKYWSQQIE,4.56
12,RAQYDELARKNPEELDKYWSQQIE,4.08
13,RAQYDELARKNDEELDKYWSQQIE,4.17
14,RAQYDELARKNSEELDKYWSQQIE,4.56
15,RAQYDELARKNCEELDKYWSQQIE,3.98
16,RAQYDELARKNMEELDKYWSQQIE,3.72
17,RAQYDELARKNHEELDKYWSQQIE,3.64
18,RAQYDELARKNFEELDKYWSQQIE,4.13
19,RAQYDELARKNEEELDKYWSQQIE,4.27
20,RAQYDELARKNREYLDKYWSQQIE,3.07
21,RAQYDELARKNRESLDKYWSQQIE,3.5
22,RAQYDELARKNREQLDKYWSQQIE,3.85
23,RAQYDELARKNRETLDKYWSQQIE,3.56
24,RAQYDELARKNREPLDKYWSQQIE,3.81

row,Variant,protein stability index
1,RAQYDELARKNREGLDKYWSQQIE,3.83
2,RAQYDELARKNRENLDKYWSQQIE,3.04
3,RAQYDELARKNREKLDKYWSQQIE,2.94
4,RAQYDELARKNREHLDKYWSQQIE,3.29
5,RAQYDELARKNRERLDKYWSQQIE,2.87
6,RAQYDELARKNREVLDKYWSQQIE,3.62
7,RAQYDELARKNREFLDKYWSQQIE,2.5
8,RAQYDELARKNRELLDKYWSQQIE,2.97
9,RAQYDELARKNREALDKYWSQQIE,3.82
10,RAQYDELARKNREWLDKYWSQQIE,3.89
11,RAQYDELARKNREMLDKYWSQQIE,2.92
12,RAQYDELARKNREILDKYWSQQIE,2.62
13,RAQYDELARKNRECLDKYWSQQIE,3.42
14,RAQYDELARKNREDLDKYWSQQIE,3.94
15,RAQYDELARKNREELDKPWSQQIE,4.34
16,RAQYDELARKNREELDKCWSQQIE,3.95
17,RAQYDELARKNREELDKDWSQQIE,5.12
18,RAQYDELARKNREELDKRWSQQIE,4.09
19,RAQYDELARKNREELDKGWSQQIE,4.27
20,RAQYDELARKNREELDKQWSQQIE,4.77
21,RAQYDELARKNREELDKKWSQQIE,4.24
22,RAQYDELARKNREELDKHWSQQIE,4.06
23,RAQYDELARKNREELDKLWSQQIE,4.6
24,RAQYDELARKNREELDKMWSQQIE,4.36

row,Variant,protein stability index
1,RAQYDELARKNREELDKEWSQQIE,5.17
2,RAQYDELARKNREELDKFWSQQIE,3.5
3,RAQYDELARKNREELDKAWSQQIE,4.62
4,RAQYDELARKNREELDKIWSQQIE,3.97
5,RAQYDELARKNREELDKSWSQQIE,4.51
6,RAQYDELARKNREELDKNWSQQIE,4.92
7,RAQYDELARKNREEHDKYWSQQIE,4.25
8,RAQYDELARKNREEFDKYWSQQIE,3.22
9,RAQYDELARKNREEQDKYWSQQIE,4.71
10,RAQYDELARKNREEADKYWSQQIE,4.37
11,RAQYDELARKNREENDKYWSQQIE,3.57
12,RAQYDELARKNREEVDKYWSQQIE,3.41
13,RAQYDELARKNREEKDKYWSQQIE,3.87
14,RAQYDELARKNREEWDKYWSQQIE,1.95
15,RAQYDELARKNREECDKYWSQQIE,3.18
16,RAQYDELARKNREEPDKYWSQQIE,4.6
17,RAQYDELARKNREEEDKYWSQQIE,3.98
18,RAQYDELARKNREEIDKYWSQQIE,3.94
19,RAQYDELARKNREETDKYWSQQIE,4.1
20,RAQYDELARKNREEGDKYWSQQIE,4.07
21,RAQYDELARKNREERDKYWSQQIE,4.22
22,RAQYDELARKNREEYDKYWSQQIE,3.3
23,RAQYDELARKNREESDKYWSQQIE,4.19
24,RAQYDELARKNREEDDKYWSQQIE,4.9

row,Variant,protein stability index
1,RAQYDELARKNREEMDKYWSQQIE,4.06
2,RAQYDELARKNREELDRYWSQQIE,2.56
3,RAQYDELARKNREELDTYWSQQIE,3.21
4,RAQYDELARKNREELDVYWSQQIE,3.64
5,RAQYDELARKNREELDFYWSQQIE,3.62
6,RAQYDELARKNREELDGYWSQQIE,3.57
7,RAQYDELARKNREELDYYWSQQIE,3.42
8,RAQYDELARKNREELDIYWSQQIE,3.16
9,RAQYDELARKNREELDHYWSQQIE,3.14
10,RAQYDELARKNREELDLYWSQQIE,3.14
11,RAQYDELARKNREELDSYWSQQIE,3.67
12,RAQYDELARKNREELDMYWSQQIE,3.51
13,RAQYDELARKNREELDCYWSQQIE,3.28
14,RAQYDELARKNREELDQYWSQQIE,2.96
15,RAQYDELARKNREELDPYWSQQIE,4.25
16,RAQYDELARKNREELDEYWSQQIE,3.94
17,RAQYDELARKNREELDDYWSQQIE,4.21
18,RAQYDELARKNREELDNYWSQQIE,3.02
19,RAQYDELARKNREELDWYWSQQIE,3.65
20,RAQYDELARKNREELDAYWSQQIE,2.7

# From the supplement of paper PMC10567573
